From patent US20230121511A1 (Chugai, published 2023)

How the values were obtained:
[1] = molecular target: T1, DualAE05-SG1202k/SG1201hV11 (engineered Cys at position 191 (EU) of CH1, unpaired); assay: SPR (Biacore T200, 37 C), tool antibody captured on mouse anti-human Fc, anti-CH1 antibody injected
T1 construct: Heterodimeric antibody with S191C in only one Fab arm, so it exists only in the “unpaired cysteines” form; not shown: light chain constant region
Procedure: (§1) Biacore binding experiments were performed to characterize binding activities of the anti-CH1 antibodies prepared in Example 3.2 to DualAE05-SG1201, DualAE05-SG1202, DualAE05-SG1202k/SG1201hV11, IgG1_001 and IgG4_001 at 37 degrees C. using Biacore T200 instrument (GE Healthcare). Specifically, mouse anti-human Fc (GE Healthcare) was immobilized onto all flow cells of a CM4 sensor chip using amine coupling kit (GE Healthcare). Tool antibodies DualAE05-SG1201, DualAE05-SG1202, DualAE05-SG1202k/SG1201hV11, IgG1_001 and IgG4_001 were captured onto flow cell, and then anti-CH1 antibodies obtained from Example 3.2 was injected over all the flow cells. All antibodies were prepared in ACES pH 7.4 containing 20 mM ACES, 150 mM NaCl, 0.05% Tween 20, 0.005% NaN₃. Sensor surface was regenerated each cycle with 3M MgCl₂.

DualAE05-SG1202 = molecular target: T2, DualAE05-SG1202 (Heavy chain pos 202 is the engineered Cys (S191C, EU). It can form an inter-Fab disulfide between the two heavy chains, so the preparation is a mixture of the paired and unpaired cysteine forms.); assay: as above
T2 construct: Corresponds to DualAE05-SG1201 with S191C in both Fab arms
Procedure: as §1

DualAE05-SG1201 = molecular target: T3, DualAE05-SG1201; assay: as above
T3 construct: Bivalent tool antibody with human IgG1 CH1 without S191C
Procedure: as §1

IgG4_001 = molecular target: T4, IgG4_001; assay: as above
T4 construct: Tool antibody for screening; captured on mouse anti-human Fc; copies: 2 + 2
Procedure: as §1

IgG1_001 = molecular target: T5, IgG1_001; assay: as above
T5 construct: Tool antibody for screening; captured on mouse anti-human Fc; copies: 2 + 2
Procedure: as §1

Human CD3eg linker = molecular target: T6, Human CD3eg linker (human); assay: SPR (Biacore 8K), antibody captured on anti-human Fc, recombinant human CD3 as analyte, 25 C, 1:1 model
T6 construct: Single-chain soluble construct expressed in FreeStyle293F cells; used as the SPR analyte; also called recombinant human CD3
T6 chain: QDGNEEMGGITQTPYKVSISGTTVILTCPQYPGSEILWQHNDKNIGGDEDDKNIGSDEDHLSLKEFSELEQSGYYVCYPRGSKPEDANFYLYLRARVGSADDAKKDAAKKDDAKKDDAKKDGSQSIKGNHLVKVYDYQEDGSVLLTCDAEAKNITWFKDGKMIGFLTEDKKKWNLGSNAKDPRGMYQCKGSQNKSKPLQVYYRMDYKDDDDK
Procedure: Binding affinity of Dual-Fab antibodies (Dual-Ig) to human CD3 were assessed at 25 degrees C. using Biacore 8K instrument (GE Healthcare). Anti-human Fc (GE Healthcare) was immobilized onto all flow cells of a CM4 sensor chip using amine coupling kit (GE Healthcare). Antibodies were captured onto the anti-Fc sensor surfaces, then recombinant human CD3 or CD137 was injected over the flow cell. All antibodies and analytes were prepared in ACES pH 7.4 containing 20 mM ACES, 150 mM NaCl, 0.05% Tween 20, 0.005% NaN₃. Sensor surface was regenerated each cycle with 3M MgCl₂. […] CD137 binding affinity assay was conducted in same condition except assay temperature was set at 37 degrees C.

T5 sequence (VH, as listed by the source limits assumed, chain 1 of 2): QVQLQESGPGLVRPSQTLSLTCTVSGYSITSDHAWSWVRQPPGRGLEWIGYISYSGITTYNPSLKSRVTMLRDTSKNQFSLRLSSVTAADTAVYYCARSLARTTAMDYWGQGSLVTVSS
T5 sequence (VL, as listed by the source limits assumed, chain 2 of 2): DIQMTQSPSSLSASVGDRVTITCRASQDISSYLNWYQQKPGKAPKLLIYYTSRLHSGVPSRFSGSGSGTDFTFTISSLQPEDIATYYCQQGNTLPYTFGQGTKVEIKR
T4 sequence (VH, as listed by the source limits assumed): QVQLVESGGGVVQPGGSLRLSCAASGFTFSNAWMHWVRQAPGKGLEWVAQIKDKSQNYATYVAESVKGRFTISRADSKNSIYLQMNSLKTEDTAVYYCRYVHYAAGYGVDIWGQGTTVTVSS

B1: FAB0135hh (antibody, V domains shown)
VH: QSLEESGGRLVTPGTPLTLTCTASGFSLSSYYMSWVRQAPGEGLEYIGWISSDGSTYYASWAKGRFTISRTSTTVDLKITSPTTEDTATYFCARDYAASNIWGPGTLVTVSS
VL: DVVMTQTPASVSEPVGGTVTIKCQASENIGNALAWYQQKPGQRPKLLIYGASNLESGVPSRFKGSRSGTEYTLTISDLECDDAATYYCQSTYYSSSYSNPFGGGTKVEIK
notes: Conformation-specific anti-CH1 antibody from immunised rabbits
Relative binding activity to tool antibody (normalized against RU binding value for IgG1_001) [1]: 0.96

B2: FAB0060hh (antibody, V domains shown)
VH: QSLEESGGRLVTPGTPLTLTCTASGFSLSTYWMNWVRQAPGKGLEWIGTINIDGSAAYASWAKGRFTISRTSTTVDLKAASPTTEDTATYFCATYGGDIWGPGTLVTVSS
VL: DVVMTQTPASVSEPVGGTVTIKCQASQSISTALAWYQQKPGQPPKLLIYGASTLESGVPSRFKGSGSGTEFTLTISDLECADAATYYCQCTYYGNNYGNAFGGGTKVEIK
notes: as for B1
Relative binding activity to tool antibody (normalized against RU binding value for IgG1_001) [1]: 0.957

B3: FAB0133hh (antibody, V domains shown)
VH: QSLEESGGRLVTPGTPLTLTCTASGFSLSTYYMNWVRQAPGKGLEWIGTITIDGTAYYASWAKGRFTISRTSTTVDLKAASPTTEDTATYFCARYDGDIWGPGTLVTVSS
VL: DVVMTQTPASVSEPVGGTVTIKCQASQSISTALAWYQQKPGQPPKLLIHGASILESGVPSRFKGSGSGTEFTLTISDLECADVATYYCQCTYYGISYGNAFGGGTKVEIK
notes: as for B1
Relative binding activity to tool antibody (normalized against RU binding value for IgG1_001) (DualAE05-SG1202): 0.206 | Relative binding activity to tool antibody (normalized against RU binding value for IgG1_001) (DualAE05-SG1201): 1.02 | Relative binding activity to tool antibody (normalized against RU binding value for IgG1_001) (IgG4_001): -0.017 | Relative binding activity to tool antibody (normalized against RU binding value for IgG1_001) (IgG1_001): 1 | Relative binding activity to tool antibody (normalized against RU binding value for IgG1_001) [1]: 0.922

B4: FAB0059ff (antibody, V domains shown)
VH: QSLEESGGRLVTPGTPLTLTCTASGFSLSSYWMNWVRQAPGKGLEWIGTVNIDGSTDYASWAKGRFTISRTSTTVDLKAASPTTEDTATYFCARYGGDIWGPGTLVIVSL
VL: DVVMTQTPASVSEPVGGTVTIKCQASQSISTALAWYQQKPGQPPKLLIYGASTLESGVPSRFKGSGSGTEFTLTISDLECADAATYYCQCTYYGSSYGNAFGGGTKVEIK
notes: as for B1
Relative binding activity to tool antibody (normalized against RU binding value for IgG1_001) [1]: 0.929

B5: H1573L0581 (antibody, V domains shown)
VH: QVQLVESGGGLVQPGRSLRLSCAASGFKFSNVWFHWVRQAPGKGLEWVAQIKDYYNAYAAYYAPSVKGRFTISRDDSKNSIYLQMNSLKTEDTAVYYCHYVHYASASTLLPAFGVDAWGQGTTVTVSS
VL: DIVMTQSPLSLPVTPGEPASISCQPSQEVVHMNRNTYLHWYQQKPGQAPRLLIYKVSNRFPGVPDRFSGSGSGTDFTLKISRVEAEDVGVYYCAQGTSHPFTFGQGTKLEIK
notes: Dual-Fab antibody (Dual-Ig) captured via anti-human Fc; also called DualAE07; dBBDu183H1573/dBBDu072L0581
Kd (Human CD3eg linker): 156 nM
